Measurements as given in publication PMC9654039, “FUS Microphase Separation: Regulation by Nucleic Acid Polymers and DNA Repair Proteins”.

How the values were obtained:
FUS∆LCD [1] = target: T1, FUS∆LCD (UniProt P35637 164-526); assay: fluorescence titration (Cy3-protein intensity); details: apparent Kd; concentration as rNMP (nucleotides), not molecules; Hill fit n 3.07; Buffer, salt, pH and temperature of the fluorescence titrations are not given in the material; concentrations are in nucleotide units. Poly(ADP-ribose) (Kd,app …)
T1 sequence (P35637 164-526): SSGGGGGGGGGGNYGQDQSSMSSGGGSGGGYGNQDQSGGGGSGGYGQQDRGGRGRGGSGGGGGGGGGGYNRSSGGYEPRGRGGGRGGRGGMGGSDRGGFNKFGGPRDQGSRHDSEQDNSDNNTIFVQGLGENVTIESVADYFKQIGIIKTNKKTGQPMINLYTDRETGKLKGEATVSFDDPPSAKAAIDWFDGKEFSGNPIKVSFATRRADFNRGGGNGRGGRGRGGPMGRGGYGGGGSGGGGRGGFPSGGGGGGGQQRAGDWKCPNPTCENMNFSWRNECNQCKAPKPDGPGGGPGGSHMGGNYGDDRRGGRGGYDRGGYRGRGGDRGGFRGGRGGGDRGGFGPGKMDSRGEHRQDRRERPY

FUS∆LCD [2] = target: T1, FUS∆LCD; assay: fluorescence titration (Cy3-protein intensity); apparent Kd; concentration as dNMP (nucleotides), not molecules; Hill fit n 1.12; Buffer, salt, pH and temperature of the fluorescence titrations are not given in the material; concentrations are in nucleotide units. Poly(ADP-ribose) (Kd,app); details: protein: recombinant; tags: Cy3 label (sulfo-cyanine 3 NHS ester); blunt; one-nucleotide gap between strands 1 and 2, opposite G of strand 3

Molecule: RNA (~3000 nt luciferase mRNA)
- Kd (FUS∆LCD [1]): 183 nM

B1: dsDNA (30 bp, one-nucleotide gap) (dsDNA)
DNA 1: GGGTTGGTTTGCG
DNA 2: ATTCACAGTTCTCCGC
DNA 3: GCGGAGAACTGTGAATGCGCAAACCAACCC
modifications: 5'-phosphate on S4 (downstream strand); 3'-OH on S3
- Kd (FUS∆LCD [2]): 2560 ± 159 nM
